Data as given in US20230242633A1 (KANAPH THERAPEUTICS, published 2023).

B1: C1.03m (mu IgG2a Fc DANG-mu CRIg) (Fc fusion)
chain: EPRGPTIKPCPPCKCPAPNLLGGPSVFIFPPKIKDVLMISLSPIVTCVVVAVSEDDPDVQISWFVNNVEVHTAQTQTHREDYGSTLRVVSALPIQHQDWMSGKEFKCKVNNKDLPAPIERTISKPKGSVRAPQVYVLPPPEEEMTKKQVTLTCMVTDFMPEDIYVEWTNNGKTELNYKNTEPVLDSDGSYFMYSKLRVEKKNWVERNSYSCSVVHEGLHNHHTTKSFSRTPGGGGGSGGGGSHPTLKTPESVTGTWKGDVKIQCIYDPLRGYRQVLVKWLVRHGSDSVTIFLRDSTGDHIQQAKYRGRLKVSHKVPGDVSLQINTLQMDDRNHYTCEVTWQTPDGNQVIRDKIIELRVRKYNPPRINTEAPTTLHSSLEATTIMSSTSDLTTNGTGKLEETIAGSGRNLPG
B2: C1.01m (mu CRIg-mu IgG2a Fc DANG) (Fc fusion)
chain: HPTLKTPESVTGTWKGDVKIQCIYDPLRGYRQVLVKWLVRHGSDSVTIFLRDSTGDHIQQAKYRGRLKVSHKVPGDVSLQINTLQMDDRNHYTCEVTWQTPDGNQVIRDKIIELRVRKYNPPRINTEAPTTLHSSLEATTIMSSTSDLTTNGTGKLEETIAGSGRNLPGGGGSEPRGPTIKPCPPCKCPAPNLLGGPSVFIFPPKIKDVLMISLSPIVTCVVVAVSEDDPDVQISWFVNNVEVHTAQTQTHREDYGSTLRVVSALPIQHQDWMSGKEFKCKVNNKDLPAPIERTISKPKGSVRAPQVYVLPPPEEEMTKKQVTLTCMVTDFMPEDIYVEWTNNGKTELNYKNTEPVLDSDGSYFMYSKLRVEKKNWVERNSYSCSVVHEGLHNHHTTKSFSRTPGK
B3: C1.02m (mu CRIg-mu IgG2a Fc DANG-VEGF binder) (Fc fusion)
chain: HPTLKTPESVTGTWKGDVKIQCIYDPLRGYRQVLVKWLVRHGSDSVTIFLRDSTGDHIQQAKYRGRLKVSHKVPGDVSLQINTLQMDDRNHYTCEVTWQTPDGNQVIRDKIIELRVRKYNPPRINTEAPTTLHSSLEATTIMSSTSDLTTNGTGKLEETIAGSGRNLPGGGGSEPRGPTIKPCPPCKCPAPNLLGGPSVFIFPPKIKDVLMISLSPIVTCVVVAVSEDDPDVQISWFVNNVEVHTAQTQTHREDYGSTLRVVSALPIQHQDWMSGKEFKCKVNNKDLPAPIERTISKPKGSVRAPQVYVLPPPEEEMTKKQVTLTCMVTDFMPEDIYVEWTNNGKTELNYKNTEPVLDSDGSYFMYSKLRVEKKNWVERNSYSCSVVHEGLHNHHTTKSFSRTPGGGGGSGGGGSSDTGRPFVEMYSEIPEIIHMTEGRELVIPCRVTSPNITVTLKKFPLDTLIPDGKRIIWDSRKGFIISNATYKEIGLLTCEATVNGHLYKTNYLTHRQTNTIIDVVLSPSHGIELSVGEKLVLNCTARTELNVGIDFNWEYPSSKHQHKKLVNRDLKTQSGSEMKKFLSTLTIDGVTRSDQGLYTCAASSGLMTKKNSTFVRVHEK

Columns and labels:
mouse C3b [1] = target: T1, mouse C3b (mouse, UniProt P01027 25-666; P01027 749-1663, limits assumed); assay: ELISA, mouse C3b immobilised on the plate; the printed value lies above the highest concentration shown (Log10 about 1.2), the curve reaches only OD450 about 1
From the text: (§1) Specifically, a human C3b protein was immobilized on a plate, and C1.01, C1.02, C1.03, and C1.04, and hIgG1 as a control were bound thereto. Next, an anti-human immunoglobulin G antibody and an anti-horseradish peroxidase (HRP) antibody were sequentially bound thereto. Moreover, a mouse C3b protein was immobilized on a plate, and C1.01m to C1.03m containing mouse CRIg were bound to mouse C3b.

mouse C3b [2] = target: T1, mouse C3b; assay: Biacore SPR, 1:1 fit; analyte series 0.78125-50 nM; the analyte is not printed on the sheet, mouse C3b by legend paragraph 26 and the C3b dilution series of paragraph 225
Description: (§2) A C3b stock solution was diluted to 50 nM using a 1×HBS-EP+ buffer. Human VEGF165 was diluted to 5 nM using a 1×HBS-EP+ buffer. The 50 nM and 5 nM solutions were then diluted to 0.78125 nM and 0.078125 nM. In the sample step, the diluted antigens were injected into the flow cells at a rate of 30 μL/min. Two 0 nM antigens (1×HBS-EP+ buffer) were used and removed from the reference signal. Binding for 180 seconds and separation for 400 seconds were performed. After the separation time, a stabilization step for 60 seconds was performed. In the regeneration step, 10 mM glycine (pH 1.5) was injected into the flow cells at a rate of 30 μL/min for 30 seconds, followed by a stabilization step for 60 seconds.
(§3) After subtracting the reference and 0 nM values from the sample values, binding kinetics were calculated using Biacore Insight Evaluation Software (Version 2.0.15.12933) and 1:1 binding model for curved fitting.

mouse C3b [3] = target: T1, mouse C3b; assay: ELISA, mouse C3b immobilised on the plate; no upper plateau in the range shown
From the text: as §1

human VEGF165 = target: T2, human VEGF165 (human, UniProt P15692-4 27-191); assay: Biacore SPR; the analyte is not printed on the sheet, human VEGF165 by legend paragraph 26
T2 construct: also called human VEGF165 protein
Description: In order to measure the binding force of the fusion protein, the physical properties of the prepared fusion protein were analyzed using Biacore 8K (GE Healthcare, 29129951) instrument.
as §2, §3

T1 sequence (P01027 25-666 limits assumed, chain 1 of 2): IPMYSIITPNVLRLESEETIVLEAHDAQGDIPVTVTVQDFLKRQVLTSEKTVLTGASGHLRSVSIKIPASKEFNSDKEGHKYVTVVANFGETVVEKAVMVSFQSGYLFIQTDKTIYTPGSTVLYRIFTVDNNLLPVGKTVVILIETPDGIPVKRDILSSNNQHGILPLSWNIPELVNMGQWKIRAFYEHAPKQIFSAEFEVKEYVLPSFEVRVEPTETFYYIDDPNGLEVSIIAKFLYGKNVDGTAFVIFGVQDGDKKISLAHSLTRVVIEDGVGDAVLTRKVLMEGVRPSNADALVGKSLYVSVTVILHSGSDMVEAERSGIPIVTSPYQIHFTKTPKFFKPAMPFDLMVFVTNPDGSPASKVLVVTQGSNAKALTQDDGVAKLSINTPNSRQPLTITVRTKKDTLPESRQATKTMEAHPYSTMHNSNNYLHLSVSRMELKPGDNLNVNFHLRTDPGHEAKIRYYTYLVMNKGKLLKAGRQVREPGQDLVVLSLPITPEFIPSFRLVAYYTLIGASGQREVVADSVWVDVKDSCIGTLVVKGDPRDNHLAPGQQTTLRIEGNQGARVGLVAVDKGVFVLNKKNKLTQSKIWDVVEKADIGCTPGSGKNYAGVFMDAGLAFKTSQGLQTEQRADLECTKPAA
T1 sequence (P01027 749-1663 limits assumed, chain 2 of 2): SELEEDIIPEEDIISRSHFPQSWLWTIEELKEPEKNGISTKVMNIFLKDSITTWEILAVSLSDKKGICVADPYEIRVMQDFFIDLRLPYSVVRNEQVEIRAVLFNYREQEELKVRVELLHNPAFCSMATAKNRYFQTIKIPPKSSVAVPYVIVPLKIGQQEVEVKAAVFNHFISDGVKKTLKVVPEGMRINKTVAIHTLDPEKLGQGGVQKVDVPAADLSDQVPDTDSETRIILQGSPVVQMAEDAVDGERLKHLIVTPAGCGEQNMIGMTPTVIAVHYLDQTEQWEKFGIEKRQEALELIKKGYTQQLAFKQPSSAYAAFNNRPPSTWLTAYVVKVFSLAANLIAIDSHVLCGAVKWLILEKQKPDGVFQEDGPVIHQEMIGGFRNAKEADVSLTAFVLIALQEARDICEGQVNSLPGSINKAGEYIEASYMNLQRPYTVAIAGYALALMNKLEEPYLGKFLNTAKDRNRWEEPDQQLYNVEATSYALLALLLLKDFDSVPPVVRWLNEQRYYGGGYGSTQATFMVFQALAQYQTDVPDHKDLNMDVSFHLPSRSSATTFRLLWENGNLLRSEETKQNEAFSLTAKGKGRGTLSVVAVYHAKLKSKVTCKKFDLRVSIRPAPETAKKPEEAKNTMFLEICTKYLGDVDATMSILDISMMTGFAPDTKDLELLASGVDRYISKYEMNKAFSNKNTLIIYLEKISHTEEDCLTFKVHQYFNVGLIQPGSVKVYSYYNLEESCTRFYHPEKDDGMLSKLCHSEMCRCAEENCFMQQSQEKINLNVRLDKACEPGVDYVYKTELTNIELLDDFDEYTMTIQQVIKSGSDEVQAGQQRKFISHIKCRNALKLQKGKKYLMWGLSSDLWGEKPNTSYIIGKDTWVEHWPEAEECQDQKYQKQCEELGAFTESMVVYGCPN
T2 sequence (P15692 other isoform, or with tags, fused parts or gaps): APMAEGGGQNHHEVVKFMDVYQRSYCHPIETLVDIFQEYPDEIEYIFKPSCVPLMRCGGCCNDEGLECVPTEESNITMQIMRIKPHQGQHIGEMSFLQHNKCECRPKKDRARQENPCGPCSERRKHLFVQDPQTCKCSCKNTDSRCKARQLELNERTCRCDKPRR

| Binder | EC50 (mouse C3b [1]) [µg/mL] | Kd (mouse C3b [2]) [pM] | EC50 (mouse C3b [3]) [µg/mL] | binding result (human VEGF165) |
| --- | --- | --- | --- | --- |
| B1 | 31.1 | – | – | – |
| B2 | – | 0.987 | 0.821 | – |
| B3 | – | 7.97 | 1.85 | binds |
